Assay results from PMC7771667, “Discovery of potent and specific inhibitors targeting the active site of MMP-9 from the engineered SPINK2 library” (PLoS ONE, 2020).

Legend:
[1] = target: T1, active MMP-9_Cat-H6 (human, UniProt P14780 107-449); test: SEC; MMP-9 (25 μM) incubated with TIMP-1 or M91005 (75 μM; molar ratio 3:1) in PBS for 1 h at 4°C; ACQUITY UPLC BEH200 column in PBS; shift of the retention time; details: both partners purified
T1 construct: human MMP-9 catalytic domain with the Fn-like domain, without the HPX domain; pro-form residues 20-449; not shown: His6, C-terminal, kept
T1 sequence (P14780 107-449): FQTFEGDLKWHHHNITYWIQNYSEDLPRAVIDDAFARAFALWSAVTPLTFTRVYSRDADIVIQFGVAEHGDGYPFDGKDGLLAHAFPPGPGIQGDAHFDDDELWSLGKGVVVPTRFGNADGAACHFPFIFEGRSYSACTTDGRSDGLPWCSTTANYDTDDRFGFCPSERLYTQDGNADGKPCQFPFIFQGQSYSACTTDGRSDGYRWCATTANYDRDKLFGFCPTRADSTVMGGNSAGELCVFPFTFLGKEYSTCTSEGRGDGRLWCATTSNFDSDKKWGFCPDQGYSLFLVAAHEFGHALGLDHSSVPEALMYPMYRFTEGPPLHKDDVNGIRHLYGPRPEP

[2] = target: T2, MMP-9_Cat_E402Q-H6 (human, UniProt P14780 107-449, E402Q); test: as above; details: both partners purified
T2 construct: human MMP-9 catalytic domain with the Fn-like domain, without the HPX domain; pro-form residues 20-449; also called pro-peptide-removed E402Q mutant; active-site mutant; source: HEK293F, transiently expressed, purified (HisTrap excel), pro-peptide removed with MMP-3; not shown: His6, C-terminal, kept
T2 sequence (P14780 107-449 E402Q): as the sequence (P14780 107-449) above, with E296Q counted along it

binding result [1]: binds | binding result [2]: binds
B1: Human TIMP-1 (natural protein)
chain: not shown
notes: signal peptide in the construct; human TIMP-1 residues 1-207
